Laboratory results reported in patent US20210395344A1 (TWIST BIOSCIENCE, published 2021).
Substitutions are numbered along the chain they refer to.

B1: SARS-CoV-2 variant 1-39 (antibody, V domains shown)
VH: EVQLLESGGGLVQPGGSLRLSCAASGFTFSSYAMYWVRQAPGKGLEWVTAISGSGGSTFYADSVKGRFTISRDNSKNTLYLQMNSLRAEDTAVYYCTRPPYGYYGDYWGQGTLVTVSS
VL: QSALTQPASVSGSPGQSITISCTGTSSDIGSYNLVSWYQQHPGKAPKLMIYEGTKRPSGVSNRFSGSKSGNTASLTISGLQAEDEADYYCCSYAGSRTYVFGGGTKLTVL
B2: SARS-CoV-2 variant 1-49 (antibody, V domains shown)
VH: EVQLLESGGGLVQPGGSLRLSCAASGFTFSSYAMYWVRQAPGKGLEWVSAISGSAGSTYYADSVKGRFTISRDNSKNTLYLQMNSLRAEDTAVYYCARDTNDFWGQGTLVTVSS
VL: B1 VL
B3: SARS-CoV-2 variant 1-45 (antibody, V domains shown)
VH: EVQLLESGGGLVQPGGSLRLSCAASGFTFSSYAMSWVRQAPGKGLEWVSIISGSAGSTYYADSVKGRFTISRDNSKNTLYLQMNSLRAEDTAVYYCARDGYKYCLWGQGTLVTVSS
VL: B1 VL
B4: SARS-CoV-2 variant 1-43 (antibody, V domains shown)
VH: EVQLLESGGGLVQPGGSLRLSCAASGFTFSSQAMSWVRQAPGKGLEWVTAISGSGGGTYYADSVKGRFTISRDNSKNTLYLQMNSLRAEDTAVYYCAKDTIFGEFYPWGQGTLVTVSS
VL: B1 VL
B5: SARS-CoV-2 variant 1-46 (antibody, V domains shown)
VH: EVQLLESGGGLVQPGGSLRLSCAASGFTFTSYAMSWVRQAPGKGLEWVSAISGSGGSTYYADSVKGRFTISRDNSKNTLYLQMNSLRAEDTAVYYCANDTSDFCFGYWIFDPWGQGTLVTVSS
VL: B1 VL
B6: SARS-CoV-2 variant 1-50 (antibody, V domains shown)
VH: B2 VH with A33D, Y35S, A55G, S57T, D99G, T100P, N101L
VL: B1 VL
B7: SARS-CoV-2 variant 1-48 (antibody, V domains shown)
VH: B5 VH with T30S, Y32H, S35Y, G55A, N98H, S101K, C104W, F105S, W108C
VL: B1 VL
B8: SARS-CoV-2 variant 1-44 (antibody, V domains shown)
VH: B4 VH with T100R, I101K, Y106D
VL: B1 VL
B9: SARS-CoV-2 variant 1-20 (antibody, V domains shown)
VH: EVQLLESGGGLVQPGGSLRLSCAASGITFSSYAMSWVRQAPGKGLEWVSGISGSGGSTYYADSVKGRFTISRDNSKNTLYLQMNSLRAEDTAVYYCANHGSGTIFGVVIAKYYFDYWGQGTLVTVSS
VL: QSALTQPASVSGSPGQSITISCTGTSSDVGHYNLVSWYQQHPGKAPKLMIYEGTKRPSGVSNRFSGSKSGNTASLTISGLQAEDEADYYCCSYAGSSSFVVFGGGTKLTVL

The binders below were run against T1, COVID S1 RBM Fc fusion (Antigen 2) (SARS-CoV-2, UniProt P0DTC2 437-508) (assay: phage ELISA).
T1 construct: domain: RBM
With B1 the “specificity ELISA, fold over background” value was 1.3 fold over background and the “specificity ELISA, percent binding relative to Acro S1” value was 6.7%.
B2 was tested, and the “specificity ELISA, fold over background” value was 0.8 fold over background and the “specificity ELISA, percent binding relative to Acro S1” value was 78.8%.
With B3 the “specificity ELISA, fold over background” value was 1 fold over background and the “specificity ELISA, percent binding relative to Acro S1” value was 8.3%.
For B4, the “specificity ELISA, fold over background” value was 1 fold over background and the “specificity ELISA, percent binding relative to Acro S1” value was 14.5%.
B5 was tested, and the “specificity ELISA, fold over background” value was 0.9 fold over background and the “specificity ELISA, percent binding relative to Acro S1” value was 19.8%.
B6 was tested, and the “specificity ELISA, fold over background” value was 0.8 fold over background and the “specificity ELISA, percent binding relative to Acro S1” value was 5.9%.
B7 was tested, and the “specificity ELISA, fold over background” value was 0.8 fold over background and the “specificity ELISA, percent binding relative to Acro S1” value was 30.3%.
In the case of B8, the “specificity ELISA, fold over background” value is reported as 0.8 fold over background and the “specificity ELISA, percent binding relative to Acro S1” value is reported as 7.6%.
In the case of B9, the “specificity ELISA, fold over background” value is reported as 0.8 fold over background and the “specificity ELISA, percent binding relative to Acro S1” value is reported as 14.5%.
